The target in this experiment is Aβ oligomers: soluble prefibrillar aggregates of biotinylated Aβ(1–42). As to the kind of experiment: SPR; BIAcore T200, single-cycle kinetics; biotinylated Aβ (11–28 or oligomeric 1–42) captured on streptavidin-coupled CM5 chip (100–200 RU); antibody as analyte 0.8–500 nM in HBS-P pH 7.4, 0.15 M NaCl; one-to-one Langmuir model.

In the case of “Crenezumab, fully humanized anti-Aβ monoclonal IgG4 (antibody)”, the Kd lay within 400 to 600 pM.

The values are drawn from paper PMC5171940.
